Assay results: patent publication US5716804, “Mammalian interleukin-10 (IL-10) super-activating receptors; and variants” (Schering Corporation, dated 1998)
Several values for one entry are separate records, joined by “and”; a condition that tells them apart may be missing. Identical values can stand only once. Blank lines part the entries; values can stand above or below the molecule they belong to.

Experiments:
mIL-10R Δ282-389 (mouse) = details: scale: log greater proliferative response than wild-type mIL-10R
mIL-10R Δ282-414 (mouse) = details: scale: log greater proliferative response than wild-type mIL-10R
mIL-10R Δ282-458 (mouse) = details: scale: log greater proliferative response than wild-type mIL-10R
the mutant mIL-10R = assay: binding of iodinated hIL-10 to Ba/F3 transfectants, Scatchard analysis
[1] = molecular target: T1, ^125 I-hIL-10 (iodinated recombinant CHO-derived human IL-10) (human, UniProt P22301, iodinated (125I); labelled residue not stated); assay: Scatchard analysis of 125I-hIL-10 saturation binding to Ba/F3 transfectants
Method: Approximately 5×10^6 cells for each cell line tested were pelleted by centrifugation at 200×g for 10 min, washed in PBS, and resuspended in 200 μl binding buffer (PBS, 10% fetal calf serum, 0.1% NaN_3) containing iodinated hIL-10 at a concentration of 100–500 pM. After incubation at 4° C. for two hours in a rotary mixer, the cells were centrifuged at 200×g for 10 min, resuspended in 100 μl binding buffer without labeled hIL-10, layered over 200 μl of a 1:1 mixture of dibutyl- and dioctyl-phthalate oils in elongated microcentrifuge tubes, centrifuged at 400×g for 5 min at 4° C., and quick frozen in liquid nitrogen. The cell pellets were then cut and counted in a Clinigamma 1272 counter (Pharmacia LKB). Non-specific binding was determined by performing the binding in the presence of 500 to 1000-fold molar excess unlabeled hIL-10. For saturation binding experiments, two-fold serial dilutions of approximately 600 pM solution of iodinated hIL-10 were used, with a parallel series done to determine non-specific binding. Scatchard analysis was performed on the data points obtained using the EBDA Program (Elsevier-Biosoft, Cambridge, U.K.). Antibody inhibition was done under the above binding conditions but with the addition of a 100-fold molar excess of each of the indicated monoclonal antibodies. Cytokine specificity was determined under similar conditions but with the addition of 500-fold molar excess of the cytokines indicated. Similar measurements can be made using the BIACORE apparatus (Pharmacia LKB) following manufacturer's recommendations.

[2] = molecular target: T1, ^125 I-hIL-10 (iodinated recombinant …); assay: binding of iodinated hIL-10 to Ba/F3 transfectants

Molecule: IL-10 (ligand)
- proliferative response to IL-10 of Ba/F3 transfectants (mIL-10R Δ282-389 (mouse)): 1.5 and 2
- proliferative response to IL-10 of Ba/F3 transfectants (mIL-10R Δ282-414 (mouse)): 1.5 and 2
- proliferative response to IL-10 of Ba/F3 transfectants (mIL-10R Δ282-458 (mouse)): 1.5 and 2

Molecule: ^125 I-hIL-10 (iodinated recombinant CHO-derived human IL-10) (from UniProt P22301) (ligand)
- Kd (the mutant mIL-10R): 0.4 to 0.6 nM

B4: mIL-10R Δ282-389 (receptor)
chain: LEFIAYGTELPSPSYVWFEARFFQHILHWKPIPNQSESTYYEVALKQYGNSTWNDIHICRKAQALSCDLTTFTLDLYHRSYGYRARVRAVDNSQYSNWTTTETRFTVDEVILTVDSVTLKAMDGIIYGTIHPPRPTITPAGDEYEQVFKDLRVYKISIRKFSELKNATKRVKQETFTLTVPIGVRKFCVKVLPRLESRINKAEWSEEQCLLITTEQYFTVTNLSILVISMLLFCGILVCLVLQWYIRHPGKLPTVLVFKKPHDFFPANPLCPETPDAIHIVSPGQPKYTQDASALGHVCLLEPKAPEEKDQVMVTFQGYQKQTRWKAEAAGPAECLDEEIPLTDAFDPELGVHLQDDLAWPPPALAAGYLKQESQGMASAPPGTPSRQWNQLTEEWSLLGVVSCEDLSIESWRFAHKLDPLDCGAAPGGLLDSLGSNLVTLPLISSLQVEE
- binding result [2]: binds

B5: mIL-10R Δ282-458 (receptor)
chain: LEFIAYGTELPSPSYVWFEARFFQHILHWKPIPNQSESTYYEVALKQYGNSTWNDIHICRKAQALSCDLTTFTLDLYHRSYGYRARVRAVDNSQYSNWTTTETRFTVDEVILTVDSVTLKAMDGIIYGTIHPPRPTITPAGDEYEQVFKDLRVYKISIRKFSELKNATKRVKQETFTLTVPIGVRKFCVKVLPRLESRINKAEWSEEQCLLITTEQYFTVTNLSILVISMLLFCGILVCLVLQWYIRHPGKLPTVLVFKKPHDFFPANPLCPETPDAIHIVGVHLQDDLAWPPPALAAGYLKQESQGMASAPPGTPSRQWNQLTEEWSLLGVVSCEDLSIESWRFAHKLDPLDCGAAPGGLLDSLGSNLVTLPLISSLQVEE
- binding result [2]: binds

Continued, values first:

- Kd [1]: 0.54 nM
B1: mIL-10R Δ483-559 (receptor)
chain: LEFIAYGTELPSPSYVWFEARFFQHILHWKPIPNQSESTYYEVALKQYGNSTWNDIHICRKAQALSCDLTTFTLDLYHRSYGYRARVRAVDNSQYSNWTTTETRFTVDEVILTVDSVTLKAMDGIIYGTIHPPRPTITPAGDEYEQVFKDLRVYKISIRKFSELKNATKRVKQETFTLTVPIGVRKFCVKVLPRLESRINKAEWSEEQCLLITTEQYFTVTNLSILVISMLLFCGILVCLVLQWYIRHPGKLPTVLVFKKPHDFFPANPLCPETPDAIHIVDLEVFPKVSLELRDSVLHGSTDSGFGSGKPSLQTEESQFLLPGSHPQIQGTLGKEESPGLQATCGDNTDSGICLQEPGLHSSMGPAWKQQLGYTHQDQDDSDVNLVQNSPGQPKYTQDASALGHVCLLEPKAPEEKDQVMVTFQGYQKQTRWKAEAAGPAECLDEEIPLTDAFDPELGVHLQDDLAWPPPALAAGYLKQES

- Kd [1]: 0.67 nM
B2: mIL-10R Δ282-414 (receptor)
chain: LEFIAYGTELPSPSYVWFEARFFQHILHWKPIPNQSESTYYEVALKQYGNSTWNDIHICRKAQALSCDLTTFTLDLYHRSYGYRARVRAVDNSQYSNWTTTETRFTVDEVILTVDSVTLKAMDGIIYGTIHPPRPTITPAGDEYEQVFKDLRVYKISIRKFSELKNATKRVKQETFTLTVPIGVRKFCVKVLPRLESRINKAEWSEEQCLLITTEQYFTVTNLSILVISMLLFCGILVCLVLQWYIRHPGKLPTVLVFKKPHDFFPANPLCPETPDAIHIVEEKDQVMVTFQGYQKQTRWKAEAAGPAECLDEEIPLTDAFDPELGVHLQDDLAWPPPALAAGYLKQESQGMASAPPGTPSRQWNQLTEEWSLLGVVSCEDLSIESWRFAHKLDPLDCGAAPGGLLDSLGSNLVTLPLISSLQVEE

- Kd [1]: 0.28 nM
B3: wild-type mouse IL-10 receptor (mIL-10R) (receptor)
chain: LEFIAYGTELPSPSYVWFEARFFQHILHWKPIPNQSESTYYEVALKQYGNSTWNDIHICRKAQALSCDLTTFTLDLYHRSYGYRARVRAVDNSQYSNWTTTETRFTVDEVILTVDSVTLKAMDGIIYGTIHPPRPTITPAGDEYEQVFKDLRVYKISIRKFSELKNATKRVKQETFTLTVPIGVRKFCVKVLPRLESRINKAEWSEEQCLLITTEQYFTVTNLSILVISMLLFCGILVCLVLQWYIRHPGKLPTVLVFKKPHDFFPANPLCPETPDAIHIVDLEVFPKVSLELRDSVLHGSTDSGFGSGKPSLQTEESQFLLPGSHPQIQGTLGKEESPGLQATCGDNTDSGICLQEPGLHSSMGPAWKQQLGYTHQDQDDSDVNLVQNSPGQPKYTQDASALGHVCLLEPKAPEEKDQVMVTFQGYQKQTRWKAEAAGPAECLDEEIPLTDAFDPELGVHLQDDLAWPPPALAAGYLKQESQGMASAPPGTPSRQWNQLTEEWSLLGVVSCEDLSIESWRFAHKLDPLDCGAAPGGLLDSLGSNLVTLPLISSLQVEE
